Test results reported in patent US11965039B2, “Compstatin analogues and their medical uses” (priority 2018, dated 2024).
Positions of bridges follow the written chain, without caps; N, C: chain ends. Non-standard residues stand in square brackets, D forms with d. Trp(1-Me) = Cn1cc(C[C@H](N)C(=O)O)c2ccccc21; Sar = CNCC(=O)O

B1: Compound B (peptide)
peptide: Ac-ICVWQDWGSHRCT-NH2
modifications: disulfide 2-12
SMILES: CC[C@H](C)[C@H](NC(C)=O)C(=O)N[C@H]1CSSC[C@@H](C(=O)N[C@H](C(N)=O)[C@@H](C)O)NC(=O)[C@H](CCCNC(=N)N)NC(=O)[C@H](Cc2c[nH]cn2)NC(=O)[C@H](CO)NC(=O)CNC(=O)[C@H](Cc2c[nH]c3ccccc23)NC(=O)[C@H](CC(=O)O)NC(=O)[C@H](CCC(N)=O)NC(=O)[C@H](Cc2c[nH]c3ccccc23)NC(=O)[C@H](C(C)C)NC1=O
B2: Compound C (peptide)
peptide: Ac-ESSAICVWQDWGEHRCT-NH2
modifications: disulfide 6-16
SMILES: CC[C@H](C)[C@H](NC(=O)[C@H](C)NC(=O)[C@H](CO)NC(=O)[C@H](CO)NC(=O)[C@H](CCC(=O)O)NC(C)=O)C(=O)N[C@H]1CSSC[C@@H](C(=O)N[C@H](C(N)=O)[C@@H](C)O)NC(=O)[C@H](CCCNC(=N)N)NC(=O)[C@H](Cc2c[nH]cn2)NC(=O)[C@H](CCC(=O)O)NC(=O)CNC(=O)[C@H](Cc2c[nH]c3ccccc23)NC(=O)[C@H](CC(=O)O)NC(=O)[C@H](CCC(N)=O)NC(=O)[C@H](Cc2c[nH]c3ccccc23)NC(=O)[C@H](C(C)C)NC1=O
B3: Compound E (peptide)
peptide: Ac-ICVWQDWGAHSCT-NH2
modifications: disulfide 2-12
SMILES: CC[C@H](C)[C@H](NC(C)=O)C(=O)N[C@H]1CSSC[C@@H](C(=O)N[C@H](C(N)=O)[C@@H](C)O)NC(=O)[C@H](CO)NC(=O)[C@H](Cc2c[nH]cn2)NC(=O)[C@H](C)NC(=O)CNC(=O)[C@H](Cc2c[nH]c3ccccc23)NC(=O)[C@H](CC(=O)O)NC(=O)[C@H](CCC(N)=O)NC(=O)[C@H](Cc2c[nH]c3ccccc23)NC(=O)[C@H](C(C)C)NC1=O
B4: Compound F (peptide)
peptide: Ac-ICVWQDWGEHSCT-NH2
modifications: disulfide 2-12
SMILES: CC[C@H](C)[C@H](NC(C)=O)C(=O)N[C@H]1CSSC[C@@H](C(=O)N[C@H](C(N)=O)[C@@H](C)O)NC(=O)[C@H](CO)NC(=O)[C@H](Cc2c[nH]cn2)NC(=O)[C@H](CCC(=O)O)NC(=O)CNC(=O)[C@H](Cc2c[nH]c3ccccc23)NC(=O)[C@H](CC(=O)O)NC(=O)[C@H](CCC(N)=O)NC(=O)[C@H](Cc2c[nH]c3ccccc23)NC(=O)[C@H](C(C)C)NC1=O
B5: Compound H (peptide)
peptide: Ac-EGSAICVWQDWGEHRC[Sar]E-NH2
modifications: disulfide 6-16
SMILES: CC[C@H](C)[C@H](NC(=O)[C@H](C)NC(=O)[C@H](CO)NC(=O)CNC(=O)[C@H](CCC(=O)O)NC(C)=O)C(=O)N[C@H]1CSSC[C@@H](C(=O)N(C)CC(=O)N[C@@H](CCC(=O)O)C(N)=O)NC(=O)[C@H](CCCNC(=N)N)NC(=O)[C@H](Cc2c[nH]cn2)NC(=O)[C@H](CCC(=O)O)NC(=O)CNC(=O)[C@H](Cc2c[nH]c3ccccc23)NC(=O)[C@H](CC(=O)O)NC(=O)[C@H](CCC(N)=O)NC(=O)[C@H](Cc2c[nH]c3ccccc23)NC(=O)[C@H](C(C)C)NC1=O
B6: Compound J (peptide)
peptide: Ac-ICVWQDWGEHRCTEGE-NH2
modifications: disulfide 2-12
SMILES: CC[C@H](C)[C@H](NC(C)=O)C(=O)N[C@H]1CSSC[C@@H](C(=O)N[C@H](C(=O)N[C@@H](CCC(=O)O)C(=O)NCC(=O)N[C@@H](CCC(=O)O)C(N)=O)[C@@H](C)O)NC(=O)[C@H](CCCNC(=N)N)NC(=O)[C@H](Cc2c[nH]cn2)NC(=O)[C@H](CCC(=O)O)NC(=O)CNC(=O)[C@H](Cc2c[nH]c3ccccc23)NC(=O)[C@H](CC(=O)O)NC(=O)[C@H](CCC(N)=O)NC(=O)[C@H](Cc2c[nH]c3ccccc23)NC(=O)[C@H](C(C)C)NC1=O
B7: Compound 86 (peptide)
peptide: Ac-SEFCI[Trp(1-Me)]QDWGEHKC[Sar]EA-NH2
modifications: disulfide 4-14
SMILES: CC[C@H](C)[C@@H]1NC(=O)[C@@H](NC(=O)[C@H](Cc2ccccc2)NC(=O)[C@H](CCC(=O)O)NC(=O)[C@H](CO)NC(C)=O)CSSC[C@@H](C(=O)N(C)CC(=O)N[C@@H](CCC(=O)O)C(=O)N[C@@H](C)C(N)=O)NC(=O)[C@H](CCCCN)NC(=O)[C@H](Cc2c[nH]cn2)NC(=O)[C@H](CCC(=O)O)NC(=O)CNC(=O)[C@H](Cc2c[nH]c3ccccc23)NC(=O)[C@H](CC(=O)O)NC(=O)[C@H](CCC(N)=O)NC(=O)[C@H](Cc2cn(C)c3ccccc23)NC1=O
B8: Compound 81 (peptide)
peptide: Ac-SE[Sar]CI[Trp(1-Me)]QDWGEHRC[Sar]EA-NH2
modifications: disulfide 4-14
SMILES: CC[C@H](C)[C@@H]1NC(=O)[C@@H](NC(=O)CN(C)C(=O)[C@H](CCC(=O)O)NC(=O)[C@H](CO)NC(C)=O)CSSC[C@@H](C(=O)N(C)CC(=O)N[C@@H](CCC(=O)O)C(=O)N[C@@H](C)C(N)=O)NC(=O)[C@H](CCCNC(=N)N)NC(=O)[C@H](Cc2c[nH]cn2)NC(=O)[C@H](CCC(=O)O)NC(=O)CNC(=O)[C@H](Cc2c[nH]c3ccccc23)NC(=O)[C@H](CC(=O)O)NC(=O)[C@H](CCC(N)=O)NC(=O)[C@H](Cc2cn(C)c3ccccc23)NC1=O
B9: Compound 82 (peptide)
peptide: Ac-SE[Sar]CI[Trp(1-Me)]QDWGEHRCTEA-NH2
modifications: disulfide 4-14
SMILES: CC[C@H](C)[C@@H]1NC(=O)[C@@H](NC(=O)CN(C)C(=O)[C@H](CCC(=O)O)NC(=O)[C@H](CO)NC(C)=O)CSSC[C@@H](C(=O)N[C@H](C(=O)N[C@@H](CCC(=O)O)C(=O)N[C@@H](C)C(N)=O)[C@@H](C)O)NC(=O)[C@H](CCCNC(=N)N)NC(=O)[C@H](Cc2c[nH]cn2)NC(=O)[C@H](CCC(=O)O)NC(=O)CNC(=O)[C@H](Cc2c[nH]c3ccccc23)NC(=O)[C@H](CC(=O)O)NC(=O)[C@H](CCC(N)=O)NC(=O)[C@H](Cc2cn(C)c3ccccc23)NC1=O
B10: Compound 85 (peptide)
peptide: Ac-EFCI[Trp(1-Me)]QDWGEHRCES-NH2
modifications: disulfide 3-13
SMILES: CC[C@H](C)[C@@H]1NC(=O)[C@@H](NC(=O)[C@H](Cc2ccccc2)NC(=O)[C@H](CCC(=O)O)NC(C)=O)CSSC[C@@H](C(=O)N[C@@H](CCC(=O)O)C(=O)N[C@@H](CO)C(N)=O)NC(=O)[C@H](CCCNC(=N)N)NC(=O)[C@H](Cc2c[nH]cn2)NC(=O)[C@H](CCC(=O)O)NC(=O)CNC(=O)[C@H](Cc2c[nH]c3ccccc23)NC(=O)[C@H](CC(=O)O)NC(=O)[C@H](CCC(N)=O)NC(=O)[C@H](Cc2cn(C)c3ccccc23)NC1=O

Tests used:
[1] = target: T1, Human C3 (Complement tech cat #A113c) (human, UniProt P01024 23-1663); assay: cell-based or functional assay
T1 sequence (P01024 23-1663 limits assumed): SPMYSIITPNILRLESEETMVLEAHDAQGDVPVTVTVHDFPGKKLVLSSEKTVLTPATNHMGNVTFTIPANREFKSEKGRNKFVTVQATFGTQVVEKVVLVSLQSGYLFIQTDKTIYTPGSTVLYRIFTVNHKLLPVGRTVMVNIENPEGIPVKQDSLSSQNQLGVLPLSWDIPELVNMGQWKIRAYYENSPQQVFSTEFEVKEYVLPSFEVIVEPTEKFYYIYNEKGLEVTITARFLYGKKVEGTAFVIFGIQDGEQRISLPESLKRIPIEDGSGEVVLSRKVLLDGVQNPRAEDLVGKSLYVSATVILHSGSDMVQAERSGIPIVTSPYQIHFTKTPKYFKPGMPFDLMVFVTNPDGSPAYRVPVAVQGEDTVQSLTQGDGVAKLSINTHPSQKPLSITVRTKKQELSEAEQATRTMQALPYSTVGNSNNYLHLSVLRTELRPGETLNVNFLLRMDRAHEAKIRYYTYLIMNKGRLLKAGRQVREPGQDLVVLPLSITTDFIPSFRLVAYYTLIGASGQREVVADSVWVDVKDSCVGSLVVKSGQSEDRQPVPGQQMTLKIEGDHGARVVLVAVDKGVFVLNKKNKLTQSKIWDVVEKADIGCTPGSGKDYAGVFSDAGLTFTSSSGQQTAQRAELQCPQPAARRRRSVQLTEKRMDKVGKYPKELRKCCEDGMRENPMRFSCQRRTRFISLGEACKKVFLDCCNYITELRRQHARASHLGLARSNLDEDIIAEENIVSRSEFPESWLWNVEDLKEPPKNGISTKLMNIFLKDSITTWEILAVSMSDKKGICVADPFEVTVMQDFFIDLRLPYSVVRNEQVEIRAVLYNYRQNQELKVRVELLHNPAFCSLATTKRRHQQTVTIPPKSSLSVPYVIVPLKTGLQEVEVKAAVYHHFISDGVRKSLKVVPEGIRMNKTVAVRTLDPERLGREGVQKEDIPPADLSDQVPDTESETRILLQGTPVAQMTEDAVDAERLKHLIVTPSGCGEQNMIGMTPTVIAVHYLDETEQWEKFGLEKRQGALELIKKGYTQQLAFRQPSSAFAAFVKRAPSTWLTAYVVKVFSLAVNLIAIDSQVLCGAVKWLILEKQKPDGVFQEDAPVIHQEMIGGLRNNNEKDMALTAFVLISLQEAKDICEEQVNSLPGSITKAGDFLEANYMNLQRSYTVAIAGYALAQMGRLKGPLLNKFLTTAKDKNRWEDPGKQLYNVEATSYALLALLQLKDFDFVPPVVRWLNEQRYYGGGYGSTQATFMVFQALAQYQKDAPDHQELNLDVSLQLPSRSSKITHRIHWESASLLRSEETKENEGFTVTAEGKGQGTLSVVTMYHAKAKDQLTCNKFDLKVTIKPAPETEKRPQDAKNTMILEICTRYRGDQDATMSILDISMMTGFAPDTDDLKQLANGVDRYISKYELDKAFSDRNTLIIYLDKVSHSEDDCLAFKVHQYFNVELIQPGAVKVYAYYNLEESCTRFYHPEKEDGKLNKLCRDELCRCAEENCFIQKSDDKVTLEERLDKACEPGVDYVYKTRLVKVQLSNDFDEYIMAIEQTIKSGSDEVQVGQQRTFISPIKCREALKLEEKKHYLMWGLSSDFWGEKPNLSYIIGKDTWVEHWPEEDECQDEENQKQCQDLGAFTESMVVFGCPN

[2] = target: T1, Human C3 (Complement tech cat #A113c); assay: SPR (Biacore T200), human C3 immobilised, peptide injected, 1:1 fit
Outline: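 Human C3 amine-coupled on CM5 chips to about 3000 RU. Multi-cycle runs on Biacore T200 at 25° C: peptides at 6-8 rising concentrations, 60-120 s at 30 µL/min in 10 mM Tris pH 7.4, 150 mM NaCl, 0.05% Tween20, dissociation up to 10 min; 3 M MgCl2 regeneration. Kd derived.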

[3] = target: T1, Human C3 (Complement tech cat #A113c); assay: cell-based or functional assay; remark: listed apart in the source

| Binder | CP hemolysis IC50 [1] [nM] | Kd [2] [nM] | inhibition of hemolysis IC50 [3] [nM] |
| --- | --- | --- | --- |
| B1 | 360 |  |  |
| B2 | 300 |  |  |
| B3 | > 1000 |  |  |
| B4 | 540 |  |  |
| B5 | 330 |  |  |
| B6 | 240 |  |  |
| B7 |  | 2.6 | < 100 |
| B8 |  | 9.7 | < 100 |
| B9 |  | 5.4 | < 100 |
| B10 |  | 1.3 | < 100 |
